Data on two molecules can be found in US9433687B2, “Anti-Notch3 antibodies and antibody-drug conjugates” (Pfizer Inc., priority 2012, dated 2016).

Experiment [1] relates to Notch3 signaling in human Notch3 reporter cells co-cultured with DLL4-HEK293 cells. The experiment in a line: Notch3 reporter gene co-culture assay. The format is cell-based. To be noted: average of two or three independent experiments; read-out: IC50 (nM) inhibition of Notch3-dependent signaling. Here is the method:
The ability of anti-Notch3 chimeric antibodies, ch28-hulgG1 and ch75-hulgG1, and humanized antibodies, hu28 and hu75, to inhibit Notch3 signaling were tested in a Notch3-dependent reporter gene co-culture assay. Anti-Notch3 antibodies were pre-incubated with Notch3 reporter cells and then co-cultured with DLL4-HEK293 cells to activate Notch3 signaling or with parental HEK293 cells as a control.
To generate the Notch3 reporter cell line, a series of three sequential, stable transfections were performed in the U-2 OS human osteosarcoma cell line (ATCC, Manassas, Va.). […]
To generate the ligand-expressing cells, HEK293 cells (ATCC) were transfected with a vector for expression of human DLL4. […] Following transfection, HEK293 cells were selected in 0.5 mg/ml G418, and clonal lines were isolated, expanded and analyzed for DLL4 expression. […]
The luminescent readings from Firefly-luciferase were divided by the internal control Renilla-luciferase reading to normalize the signals (termed hereinafter “F/R ratio”). […]
Human Notch3 reporter cells were trypinized and harvested from culture plate in assay medium which consisted 50% complete McCoy's 5A media (McCoy's 5A with 10% FBS and penicillin, streptomycin, Invitrogen) and 50% of complete MEM media (MEM with 10% FBS and penicillin, streptomycin, Invitrogen) and counted. […]

Experiment [2] addresses T1, MDA-MB-468/hNotch3 (Homo sapiens, UniProt Q9UM47).
T1 construct: cell lines engineered to over-express full length human Notch3 protein: MDA-MB-468/hNotch3 and U2OS/hNotch3; expressed in transfected cells; host or cells: MDA-MB-468
In words: Flow cytometry (FACS) binding, MDA-MB-468/hNotch3. To be noted: 4 μg/mL antibody. As to the method:
(§1) Unconjugated anti-Notch3 antibodies, hu28 and hu75, were examined for cell surface binding activity to Notch3 expressing cell lines by flow cytometry. Fluorescence activated cell sorting (FACS) analysis was conducted according to standard procedures. Cells were rinsed in HBSS with calcium chloride and magnesium chloride (herein termed HBSS++), harvested using trypsin without EDTA and neutralized with medium containing FBS. Cells were incubated on ice for 30 minutes with 4 μg/mL anti-Notch3 antibodies, hu28 and hu75, in HBSS++containing 3% HICS (heat-inactivated calf serum). Cells were washed three times with cold HBSS++, 3% HICS buffer. Cells were incubated in allophycocyanin-conjugated AffiniPure F(ab′)2 fragment goat anti-human IgG, Fc fragment secondary antibody (Jackson ImmunoResearch Laboratories, Inc., West Grove, Pa.) at 10 μg/mL for 30 minutes on ice in the dark. Cells were washed once with cold HBSS++/3% HICS buffer. Cells were resuspended in HBSS-++/3% HICS, 25 mM HEPES, 1 mM MgCl2 and 25 μg/ml DNaseI. 7-AAD (7-Amino-Actinomycin D) was added for exclusion of nonviable cells. Live cells were analyzed on a BD FACSCalibur flow cytometer (BD Biosciences, San Jose, Calif.). Mean fluorescence intensity (MFI) from channel FL-4 was calculated with FlowJo flow cytometry analysis software (Ashland, Oreg.).
A general note: Flow cytometry measures light scatter and fluorescence of single cells or particles in a stream.

Another experiment deals with T2, OVCAR3 (Homo sapiens, UniProt Q9UM47).
T2 construct: Notch3 endogenously expressing cells MDA-MB-468, HCC2429 and OVCAR3; endogenous in cells; host or cells: OVCAR3
The experiment in a line: Flow cytometry (FACS) binding, OVCAR3. To be noted: 4 μg/mL antibody. As to the method:
as §1

Experiment [3] has as its target T1, MDA-MB-468/hNotch3. The experiment in a line: In vitro cytotoxicity (MTS), MDA-MB-468/hNotch3. The format is cell-based. To be noted: MDAMB468/hNotch3; data not shown. As to the method: The effects of anti-Notch3 ADCs were assessed on 1) cell lines endogenously expressing Notch3 protein: HCC2429 (lung cancer), OVCAR3 (ovarian cancer) and MDA-MB-468 (breast cancer), 2) cell lines engineered to over-express full length human Notch3 protein: MDA-MB-468/hNotch3 and U2OS/hNotch3, and 3) a negative control cell line (SW900) using an MTS cellular viability indicator (Promega, Madison, Wis.). These cell lines were cultured with increasing concentrations of anti-Notch3 ADCs comprising rat-human chimeric anti-Notch3 antibodies, ch28 and ch75, and humanized anti-Notch3 antibodies, hu28 and hu75, conjugated to various linker-payload combinations of the present invention. As a specificity control for the anti-Notch3-ADCs, non-targeted control-ADCs (huNeg8.8-ADCs or ch2H6-ADCs) were also tested on the same cell lines. After four days, viability of each culture was assessed. IC50 values were calculated by logistic non-linear regression, model #203 with XL fit v4.2 (IDBS, Guildford, Surry, UK) and presented as ng Ab/mL. The drug antibody ratio (DAR) is also provided.

T1 sequence (Q9UM47 40-2321): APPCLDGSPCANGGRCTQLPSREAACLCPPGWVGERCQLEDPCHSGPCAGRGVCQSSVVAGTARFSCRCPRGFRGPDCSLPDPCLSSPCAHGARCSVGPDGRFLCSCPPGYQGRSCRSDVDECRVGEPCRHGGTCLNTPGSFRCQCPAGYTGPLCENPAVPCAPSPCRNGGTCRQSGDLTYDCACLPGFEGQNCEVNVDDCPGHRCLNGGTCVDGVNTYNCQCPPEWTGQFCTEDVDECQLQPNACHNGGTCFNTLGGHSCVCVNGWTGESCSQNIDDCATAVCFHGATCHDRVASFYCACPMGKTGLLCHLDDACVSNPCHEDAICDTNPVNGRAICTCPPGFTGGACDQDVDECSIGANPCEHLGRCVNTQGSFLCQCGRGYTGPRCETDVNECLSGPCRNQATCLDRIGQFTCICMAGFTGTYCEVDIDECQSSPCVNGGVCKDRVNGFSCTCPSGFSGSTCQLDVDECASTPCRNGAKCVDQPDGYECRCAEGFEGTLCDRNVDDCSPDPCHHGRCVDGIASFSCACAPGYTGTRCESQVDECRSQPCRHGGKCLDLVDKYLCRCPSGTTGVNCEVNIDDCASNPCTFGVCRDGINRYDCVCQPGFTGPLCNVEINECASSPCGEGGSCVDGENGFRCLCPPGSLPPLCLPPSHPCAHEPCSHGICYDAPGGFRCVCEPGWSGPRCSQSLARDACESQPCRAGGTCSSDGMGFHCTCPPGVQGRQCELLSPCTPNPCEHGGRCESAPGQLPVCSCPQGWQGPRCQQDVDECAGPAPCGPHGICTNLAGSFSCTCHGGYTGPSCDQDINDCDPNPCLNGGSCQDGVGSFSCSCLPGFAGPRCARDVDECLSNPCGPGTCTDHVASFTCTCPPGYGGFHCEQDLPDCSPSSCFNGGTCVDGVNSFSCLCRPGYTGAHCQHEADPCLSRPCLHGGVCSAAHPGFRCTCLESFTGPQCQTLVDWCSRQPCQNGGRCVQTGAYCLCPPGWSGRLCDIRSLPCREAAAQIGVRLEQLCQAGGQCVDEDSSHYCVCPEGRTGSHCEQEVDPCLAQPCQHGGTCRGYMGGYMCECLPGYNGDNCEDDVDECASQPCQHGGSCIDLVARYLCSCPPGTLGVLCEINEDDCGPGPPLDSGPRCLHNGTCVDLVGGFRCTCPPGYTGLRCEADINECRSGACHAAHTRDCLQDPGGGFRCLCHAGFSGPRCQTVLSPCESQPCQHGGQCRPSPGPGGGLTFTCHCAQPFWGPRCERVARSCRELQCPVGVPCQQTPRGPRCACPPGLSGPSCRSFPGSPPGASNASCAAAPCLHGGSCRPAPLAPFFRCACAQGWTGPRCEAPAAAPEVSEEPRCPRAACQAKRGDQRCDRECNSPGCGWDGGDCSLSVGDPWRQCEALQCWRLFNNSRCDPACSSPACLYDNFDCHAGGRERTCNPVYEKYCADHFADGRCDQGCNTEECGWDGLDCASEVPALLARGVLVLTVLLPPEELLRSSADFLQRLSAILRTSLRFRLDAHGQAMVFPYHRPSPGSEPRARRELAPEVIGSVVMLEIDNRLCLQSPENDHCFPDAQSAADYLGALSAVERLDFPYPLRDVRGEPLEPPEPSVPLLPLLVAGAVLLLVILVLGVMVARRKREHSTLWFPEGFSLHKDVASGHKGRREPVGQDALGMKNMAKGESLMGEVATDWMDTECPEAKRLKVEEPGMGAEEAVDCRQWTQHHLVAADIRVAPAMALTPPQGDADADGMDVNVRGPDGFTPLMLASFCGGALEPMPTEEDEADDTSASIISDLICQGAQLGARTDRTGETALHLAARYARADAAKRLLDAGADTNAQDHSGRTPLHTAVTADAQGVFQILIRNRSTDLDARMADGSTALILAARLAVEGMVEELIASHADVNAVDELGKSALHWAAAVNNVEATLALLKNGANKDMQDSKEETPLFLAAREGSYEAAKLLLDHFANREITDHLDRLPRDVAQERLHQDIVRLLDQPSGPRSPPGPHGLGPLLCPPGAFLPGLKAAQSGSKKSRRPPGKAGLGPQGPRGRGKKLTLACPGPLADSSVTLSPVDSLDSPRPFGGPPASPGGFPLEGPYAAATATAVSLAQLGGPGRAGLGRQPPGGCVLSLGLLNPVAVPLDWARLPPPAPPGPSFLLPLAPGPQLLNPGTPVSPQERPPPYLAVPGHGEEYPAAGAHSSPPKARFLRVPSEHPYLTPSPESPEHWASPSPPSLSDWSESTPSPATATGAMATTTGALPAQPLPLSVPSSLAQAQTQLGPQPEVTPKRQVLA
T2 sequence (Q9UM47 40-2321): as above

B1: ch75: rat-human chimeric anti-Notch3 antibody 75, rat variable regions fused with human IgG1 and human kappa (antibody, V domains shown)
VH: QVKLLQSGAALVKPGASVKMSCKASGYAFTDYWVTWVKQSHGKSLEWIGEISPNSGGTNFNEKFKGKATLTVDKSTSTAYMELSRLTSEDSAIYYCTRGEIRYNWFAYWGQGTLVTVSS
VL: NIVMTQSPKSMSISVGDRVTMNCKASQNVGNNIAWYQQKPGQSPKLLIYYASNRYTGVPDRFTGGGYGTDFTLTINSMQAEDAAFYYCQRLYNSPFTFGSGTKLEIK
One may read the IC50 as the midpoint of a concentration-inhibition curve. For the molecule B1, the concentration for half-maximal inhibition (IC50) in experiment [1] was 2.1 nM.

B2: hu28 VH1.0/VL1.0: humanized r28 variant VH1.0/VL1.0, anti-Notch3 antibody (VH SEQ ID NO: 13, VL SEQ ID NO: 25) (antibody, V domains shown)
VH: EVQLVESGGGLVQPGGSLRLSCAASGFTFRDYGMTWVRQAPGKGLEWVAYISSGSNYIYYAEAVKGRFTISRDNAKNSLYLQMNSLRAEDTAVYYCARRGPFVLDAWGQGTLVTVSS
VL: DIQMTQSPSSLSASVGDRVTITCKASQSINRYLHWYQQKPGKAPKLLIYNANGLQTGVPSRFSGSGSGTDFTLTISSLQPEDFATYYCLQHNTWPDTFGGGTKVEIK
B2: the MFI with MDA-MB-468/hNotch3 [2] is 1192; with OVCAR3, 116. Moreover, the “effect of unconjugated antibody on viability” value with MDA-MB-468/hNotch3 [3] was “did not affect the viability”.
